Results: CN112500484A (MEDX TRANSLATIONAL MEDICINE CO LTD, dated 2021)

Target: T1, 人TROP2蛋白C端合成多肽 Arg299-Leu323, 裸肽 (not coupled to KLH) (human)
T1 construct: also called 抗原多肽
T1 peptide: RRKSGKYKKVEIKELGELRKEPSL
Experiment: indirect ELISA screen of transiently expressed antibodies

B1: MJ1-1抗体 (rabbit anti-human TROP2 monoclonal antibody) (antibody, V domains shown)
VH: QSVEESGGRLVTPGTPLTLTCTVSGIDLSSDAIFWVRQAPGEGLKYIGFIHPAGVTYYAAWARGRFTISRTSTTVDLKMTRLTTEDTATYFCGRYFGYASIDIWGPGTLVTVSS
VL: AQVLTQTPSSTSAAVGGTVTINCQSSQNVYDKNQLSWFQQKPGQPPKLLIYKASTLASGVPSRFSGSGSGTQFTLTISGVECDDAATYYCAGVYTGNIYTFGGGTEVVVKG
notes: also called MJ1-1单克隆抗体; 抗TROP2抗体
binding result: binds
